# Experimental data: patent US6518063, “Osf2/Cbfa1 nucleic acids and methods of use therefor” (Board of Regents, The University of Texas System)
# B1: Osteocalcin (OG2) OSE2 (dsDNA)
# DNA 1: AGCTGCAATCACCAACCACAGCA
# DNA 2: TGCTGTGGTTGGTGATTGCAGCT
# B2: Osteopontin OSE2 (dsDNA)
# DNA 1: CGCTCTTTGTGCAAACCACACAG
# DNA 2: CTGTGTGGTTTGCACAAAGAGCG
# How the values were obtained:
# [1] = molecular target: T1, Osf2/Cbfa1 (Mus musculus, UniProt Q08775 SEQ:1-528); test: cell_activity; p6OSE2-luc (6 copies), F9 cells; conditions: tags: pCMV5 expression
# Description: After transfection the cells were washed twice with PBS (150 mM NaCl, 10 mM sodium phosphate [pH 7.2]), and regular medium was added for 24 h. Cells were harvested and lysed by three cycles of freeze-thawing. β-galactosidase activities present in each lysate, measured by a colorimetric enzyme assay (Ausubel et al., 1997) using resorufin β-D-galactopyranoside (Boehringer Mannheim) as a substrate, were used to normalize the transfection efficiency between different studies. DNA cotransfections (Ausubel et al., 1997) were performed in duplicates and repeated at least four times with quantitatively and qualitatively similar results. Luciferase activities were assayed using a Monolight 2010 luminometer (Analytical Luminescence Laboratory, San Diego, Calif.) and D-luciferin substrate (Analytical Luminescence Laboratory) in 100 mM Tris-HCl [pH 7.8], 5 mM ATP, 15 mM MgSO_4, 1 mM dithiothreitol (DTT). For overexpression studies, expression plasmids were transfected for 4 h with Lipofectamin (GIBCO) following the manufacturer's instructions. RNA were harvested 40 h after transfection. […]
# The transcriptional activity of Osf2/Cbfa1 was assessed by DNA cotransfection studies. […]
# [2] = molecular target: delta.runt.PST + Cbfb heterodimer (UniProt Q08775;Q08024 Q08775:188-607,Q08024:1-187); test: EMSA; supershifted heterodimer complex; conditions: tags: 6xHis (pTrcHis); chain copies: 2 (1:1 heterodimer, inferred); label: 32P
# Source text: FIG. 18A. The QA domain prevents heterodimerization of Osf2 with Cbfβ. EMSA done with labeled double-stranded OSE2 oligonucleotide, and equivalent amounts of the Histidine-tagged wild-type and mutant proteins, in the presence or absence of Cbfβ. The nonspecific band (NS) is indicated by an arrow. Arrowheads indicate the supershifted complexes seen in lanes 4 and 10.
# (§1) 5.6.1.3 Generation of Recombinant Fusion Proteins, DNA-binding Assays, and In Vitro Binding Assays For protein production, bacterial cells were induced with 2 mM IPTG, and the fusion proteins were enriched using Ni-NTA agarose resin (Qiagen Chatsworth, Calif.) as per the manufacturer's guidelines. DNA-binding assays were performed with 5 fmol of ^32P-labeled double-stranded OSE2 oligonucleotides, in a buffer containing 20 mM Tris-HCl, pH 8.0, 10 mM NaCl, 3 mM EGTA, 0.05% NP-40, 5 mM DTT, and 2 μg of poly (dI.dC).poly (dI.dC), with equivalent amounts of wild type or mutant proteins. […] The proteins were checked for purity and quantified before use. ^35S-labeled Osf2 and Cbfa2 were synthesized in rabbit reticulocyte lysate using coupled in vitro transcription and translation (TNT kit, Promega). Typically, 100 ng of fusion protein bound to glutathione-agarose beads was used for each assay, while the amount of labeled protein in the assay was determined using fluorography. […]
# [3] = molecular target: His-Cbfa2 (Mus musculus, UniProt Q03347 SEQ:1-451); test: EMSA; conditions: tags: 6xHis (pTrcHis); label: 32P
# Description: as §1
# (§2) Since Cbfβ is also expressed in osteoblasts, the inventors tested if Cbfβ was also a partner for Osf2 using an electrophoretic mobility shift assay (EMSA). […] In contrast, when using His-Cbfa2 protein as a positive control, the inventors always detected heterodimerization with Cbfβ, resulting in a protein-DNA complex of slower mobility (FIG. 18A, compare lanes 3 and 4). […]
# [4] = molecular target: OSF2/CBFA1a (Homo sapiens, UniProt Q13950 SEQ:1-521); test: cell_activity; p6OSE2-luc, F9 cells; conditions: tags: pCMV expression
# Description: FIG. 8B. F9 mouse teratocarcinoma cells were transiently transfected with 5 μg of the reporter plasmid in presence of 5 μg of the indicated expression vector. Values are expressed relative to the basal activity of p6OSE2-luc which was set at 1. Data represent results from 3 independent transfection studies.
# The mouse F9 teratocarcinoma cell line was used for the DNA transfection studies. The cells were plated on 10-cm dishes at a density of 5×10^5 cells/dish. Cells were transfected by the calcium phosphate coprecipitation method (Chen and Okayama, 1987), using 5 μg of reporter plasmid, 5 μg of expression plasmid and 2 μg of pRSV/βGal as previously described (Geoffroy et al., 1995). The p6OSE2-luc plasmid containing six copies of the wild-type OSE2 oligonucleotide in front of the −34/+13 mOG2 promoter-luciferase (luc) was used as reporter plasmid (Ducy and Karsenty, 1995). The pCMV-hOSF2/CBFA1a and pCMV-hOSF2/CBFA1b were used as expression plasmids. They contain respectively the full length hOSF2/CBFA1a cDNA and the hOSF2/CBFA1b cDNA lacking exon 8 in correct orientation downstream from the CMV promoter. Luciferase and β-galactosidase activities were assayed as previously described (Geoffroy et at, 1995). […]
# [5] = molecular target: His-Cbfa2 + His-Cbfb heterodimer (UniProt Q03347;Q08024 Q03347:1-451,Q08024:1-187); test: EMSA; slower heterodimer complex; conditions: tags: 6xHis on each (pTrcHis); chain copies: 2 (1:1 heterodimer, inferred); label: 32P
# Description: as §1, §2
# [6] = molecular target: T1, Osf2/Cbfa1; test: cell_activity; p910-Opn-luc promoter fragment, F9 cells; deletion of element abolished; conditions: tags: pCMV5 expression
# T1 sequence (Q08775 80-607): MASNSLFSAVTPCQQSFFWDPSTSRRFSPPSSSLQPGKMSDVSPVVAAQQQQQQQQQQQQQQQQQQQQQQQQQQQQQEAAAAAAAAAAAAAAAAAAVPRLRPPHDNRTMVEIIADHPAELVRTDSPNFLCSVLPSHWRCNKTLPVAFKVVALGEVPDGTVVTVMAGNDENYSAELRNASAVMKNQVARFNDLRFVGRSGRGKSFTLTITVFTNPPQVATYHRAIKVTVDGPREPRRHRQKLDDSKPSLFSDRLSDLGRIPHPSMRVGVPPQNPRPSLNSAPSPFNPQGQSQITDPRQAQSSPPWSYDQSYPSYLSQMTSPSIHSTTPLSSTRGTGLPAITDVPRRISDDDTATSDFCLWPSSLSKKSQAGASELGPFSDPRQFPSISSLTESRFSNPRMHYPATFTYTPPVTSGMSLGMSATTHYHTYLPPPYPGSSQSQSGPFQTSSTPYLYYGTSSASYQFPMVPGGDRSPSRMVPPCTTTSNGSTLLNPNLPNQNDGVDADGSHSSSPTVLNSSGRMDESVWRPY
# Sequence of His-Cbfa2 (Q03347 whole entry): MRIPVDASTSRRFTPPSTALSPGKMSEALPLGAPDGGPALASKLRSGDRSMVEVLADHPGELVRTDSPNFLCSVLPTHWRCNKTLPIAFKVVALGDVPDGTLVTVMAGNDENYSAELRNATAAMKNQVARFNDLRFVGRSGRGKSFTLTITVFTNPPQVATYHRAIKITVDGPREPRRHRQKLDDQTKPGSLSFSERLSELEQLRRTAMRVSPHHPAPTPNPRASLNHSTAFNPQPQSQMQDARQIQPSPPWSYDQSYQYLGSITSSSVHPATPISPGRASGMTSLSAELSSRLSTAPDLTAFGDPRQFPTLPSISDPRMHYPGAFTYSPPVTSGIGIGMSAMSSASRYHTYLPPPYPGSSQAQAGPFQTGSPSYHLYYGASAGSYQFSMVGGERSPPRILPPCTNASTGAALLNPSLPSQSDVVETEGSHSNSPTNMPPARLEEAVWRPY
# Sequence of His-Cbfa2 + His-Cbfb heterodimer (Q03347 whole entry, chain 1 of 2): as the sequence (Q03347 whole entry) above
# Sequence of His-Cbfa2 + His-Cbfb heterodimer (Q08024 whole entry, chain 2 of 2): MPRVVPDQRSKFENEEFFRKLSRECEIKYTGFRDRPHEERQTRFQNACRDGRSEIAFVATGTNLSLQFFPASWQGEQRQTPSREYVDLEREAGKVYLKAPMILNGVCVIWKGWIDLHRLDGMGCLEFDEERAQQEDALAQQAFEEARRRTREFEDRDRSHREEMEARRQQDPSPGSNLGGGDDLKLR
# Sequence of delta.runt.PST + Cbfb heterodimer (Q08775 188-607, stated change not applied, chain 1 of 2): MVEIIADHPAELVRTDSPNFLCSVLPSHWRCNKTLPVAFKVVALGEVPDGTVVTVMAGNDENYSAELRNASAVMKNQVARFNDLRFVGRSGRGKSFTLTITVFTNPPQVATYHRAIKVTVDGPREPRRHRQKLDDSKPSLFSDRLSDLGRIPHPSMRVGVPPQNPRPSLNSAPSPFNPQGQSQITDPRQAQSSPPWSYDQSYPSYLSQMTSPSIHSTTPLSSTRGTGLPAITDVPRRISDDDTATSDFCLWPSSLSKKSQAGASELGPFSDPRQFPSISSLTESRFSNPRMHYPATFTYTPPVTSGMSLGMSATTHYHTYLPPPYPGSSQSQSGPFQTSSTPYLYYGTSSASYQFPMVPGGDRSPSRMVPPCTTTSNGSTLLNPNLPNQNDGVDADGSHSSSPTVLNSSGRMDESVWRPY
# Sequence of delta.runt.PST + Cbfb heterodimer (Q08024 whole entry, stated change not applied, chain 2 of 2, the tested form may be a part): as the sequence (Q08024 whole entry, chain 2 of 2) above
# Sequence of OSF2/CBFA1a (Q13950 whole entry P266H/R267G): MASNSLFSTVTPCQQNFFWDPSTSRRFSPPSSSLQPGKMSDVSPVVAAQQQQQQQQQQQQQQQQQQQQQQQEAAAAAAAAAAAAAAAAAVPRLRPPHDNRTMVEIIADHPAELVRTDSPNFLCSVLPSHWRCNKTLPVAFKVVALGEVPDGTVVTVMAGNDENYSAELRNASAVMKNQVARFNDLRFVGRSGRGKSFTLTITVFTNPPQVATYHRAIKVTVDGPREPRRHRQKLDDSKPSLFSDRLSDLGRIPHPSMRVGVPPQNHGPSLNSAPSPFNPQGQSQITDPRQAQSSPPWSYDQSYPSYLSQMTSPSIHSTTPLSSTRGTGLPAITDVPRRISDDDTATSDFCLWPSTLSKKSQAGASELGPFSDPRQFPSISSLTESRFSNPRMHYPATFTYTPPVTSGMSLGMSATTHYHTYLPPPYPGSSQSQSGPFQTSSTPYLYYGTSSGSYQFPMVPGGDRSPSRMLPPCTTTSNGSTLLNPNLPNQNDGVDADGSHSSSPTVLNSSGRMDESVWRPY
Binder,activity [1] [fold activation],binding result [2],binding result [3],activity [4] [fold activation],binding result [5],activity [6] [fold activation]
B1,> 70,binds,binds,75,binds,–
B2,–,–,–,–,–,4
